± gives the standard error. For part of these data: Fewer inactive variants are shown than the library holds.
B1: glmS ribozyme (parent)
chain: AUAAAAGCGCCAGAACUACAGAAAUGUAGUUGACGAGGAGGAGGUUUAUCGAAUUUUCGGCGGAUGCCUCCAAA

Tests used:
Details in all cases: with glucosamine-6-phosphate
[1] = variants of: B1; test: kcat; higher = faster cleavage; RNA array
Outline: (§1)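 Glucosamine-6-phosphate, from 40 μM to 10 mM in HEPES/KCl/Mg(OAc)2 buffer, was flowed over sequenced MiSeq chips carrying barcoded ribozyme variants transcribed in situ by E. coli RNA polymerase. A hybridised Cy3 probe tracked the variants at 37 °C as tiles were imaged over ~14 h. kobs, kcat and KM were obtained by fitting normalised per-tile medians to exponential decays and then applying weighted Michaelis–Menten fits across concentrations.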

[2] = variants of: B1; test: self-cleavage kobs at 2500 uM GlcN6P; higher = faster cleavage; RNA array
Outline: as §1

[3] = variants of: B1; test: KM; higher = weaker cofactor use; RNA array
Outline: as §1

[4] = variants of: B1; test: self-cleavage kobs at 40 uM GlcN6P; higher = faster cleavage; RNA array
Outline: as §1

[5] = variants of: B1; test: self-cleavage kobs at 160 uM GlcN6P; higher = faster cleavage; RNA array
Outline: as §1

[6] = variants of: B1; test: self-cleavage kobs at 640 uM GlcN6P; higher = faster cleavage; RNA array
Outline: as §1

[7] = variants of: B1; test: self-cleavage kobs at 10000 uM GlcN6P; higher = faster cleavage; RNA array
Outline: as §1

Variant	kcat [1]	self-cleavage kobs at 2500 uM GlcN6P [2]	KM [3]	self-cleavage kobs at 40 uM GlcN6P [4]	self-cleavage kobs at 160 uM GlcN6P [5]	self-cleavage kobs at 640 uM GlcN6P [6]	self-cleavage kobs at 10000 uM GlcN6P [7]
A15U C68A	2.71e-05 ± 1e-05 s⁻¹	3.7e-05 ± 1.7e-05 s⁻¹					
A15U C68U	0.000466 ± 3e-05 s⁻¹	0.000277 ± 2.2e-05 s⁻¹	1610 ± 210 µM	1.92e-05 ± 9.6e-06 s⁻¹	4.94e-05 ± 7.4e-06 s⁻¹	0.000127 ± 9.9e-06 s⁻¹	0.000409 ± 2.7e-05 s⁻¹
C16G U69G	4.98e-05 ± 9.6e-06 s⁻¹	5.34e-05 ± 6.2e-06 s⁻¹			3.78e-05 ± 1.2e-05 s⁻¹	5.32e-05 ± 1.1e-05 s⁻¹	
C16G C50A U57C C68U C71G	2.93e-05 ± 8.8e-06 s⁻¹						
C16G A53U	0.00332 ± 0.00045 s⁻¹	0.00182 ± 0.0004 s⁻¹	1910 ± 380 µM	8.15e-05 ± 1.4e-05 s⁻¹	0.000238 ± 6e-05 s⁻¹	0.000752 ± 0.00012 s⁻¹	0.00295 ± 0.00047 s⁻¹
C16A U54C	0.00231 ± 0.00079 s⁻¹	0.000967 ± 0.00025 s⁻¹		6.96e-05 ± 1.3e-05 s⁻¹	0.000102 ± 2.6e-05 s⁻¹	0.000575 ± 0.00013 s⁻¹	0.00194 ± 0.00029 s⁻¹
A15U C50G A53U U55A	3.35e-05 ± 1.6e-05 s⁻¹	4.02e-05 ± 1.8e-05 s⁻¹					
C16G U57A	5.68e-05 ± 5.7e-06 s⁻¹	3.99e-05 ± 1.7e-05 s⁻¹	1570 ± 780 µM				4.85e-05 ± 8.9e-06 s⁻¹
C16G U49G	6.89e-05 ± 1.1e-05 s⁻¹	5.02e-05 ± 1.3e-05 s⁻¹					5.76e-05 ± 1.1e-05 s⁻¹
C16G C58U	3.48e-05 ± 3.2e-06 s⁻¹	3.89e-05 ± 9.2e-06 s⁻¹		< 1e-05 s⁻¹			3.22e-05 ± 5.6e-06 s⁻¹
C16G U46A	0.000198 ± 1.7e-05 s⁻¹	0.000146 ± 2.2e-05 s⁻¹	676 ± 180 µM		4.2e-05 ± 2e-05 s⁻¹	9.94e-05 ± 2.2e-05 s⁻¹	0.000213 ± 4.4e-05 s⁻¹
C16U A48U C58G C70G	4.36e-05 ± 1.5e-05 s⁻¹				4e-05 ± 1.8e-05 s⁻¹	7.73e-05 ± 3e-05 s⁻¹	
C16A G29C	0.00401 ± 0.0015 s⁻¹	0.00217 ± 0.0003 s⁻¹	1940 ± 970 µM	0.000114 ± 1.3e-05 s⁻¹	0.000215 ± 4.5e-05 s⁻¹	0.000949 ± 0.00011 s⁻¹	0.00391 ± 0.00075 s⁻¹
C16G C67U	0.000669 ± 7.7e-05 s⁻¹	0.000504 ± 6.2e-05 s⁻¹	736 ± 160 µM	4.87e-05 ± 9.4e-06 s⁻¹	0.000106 ± 1.5e-05 s⁻¹	0.000318 ± 3.4e-05 s⁻¹	0.000642 ± 8.6e-05 s⁻¹
A15U U46A	0.000378 ± 2.9e-05 s⁻¹	0.000225 ± 2.3e-05 s⁻¹	2050 ± 300 µM		3.16e-05 ± 1.1e-05 s⁻¹	8.53e-05 ± 9.5e-06 s⁻¹	0.000303 ± 3.2e-05 s⁻¹
C16A C70A	3.47e-05 ± 1.4e-05 s⁻¹	6.59e-05 ± 2.4e-05 s⁻¹				3.14e-05 ± 1.6e-05 s⁻¹	

Reference: the supplement of paper PMC7125110
